Values of other authors as cited in paper PMC3145095.

Biological target: CD8αα (Mus musculus) (UniProt P01731)
UniProt P01731, sequence (P01731 28-196): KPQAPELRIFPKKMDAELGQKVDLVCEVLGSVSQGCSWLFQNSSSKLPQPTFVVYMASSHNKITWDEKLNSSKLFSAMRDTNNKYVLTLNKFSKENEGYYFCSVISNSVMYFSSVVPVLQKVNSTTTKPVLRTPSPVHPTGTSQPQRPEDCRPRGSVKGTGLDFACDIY

Kd: 12 µM
Substance: Thymus leukaemia antigen (TL) (from UniProt P14432)
